# Where a chain is given by its changes, count along the chain named. Names may count otherwise.
# B1: 3C3: phage clone, domain 1 mutant L52P (protein)
# chain: GRTCPKPDDLPFSTVVPLKTFYEPGEEITYSCKPGYVSRGGMRKFICPLTGPWPINTLKCTPRV
# B2: 3F12: phage clone, domain 1 multiple mutant L10I, P17Q, Y22C (protein)
# chain: B1 chain with L10I, P17Q, Y22C, P52L
# B3: 3A4: phage clone, domain 1 multiple mutant D8A, S13T (protein)
# chain: B1 chain with D8A, S13T, P52L
# B4: 4D1: phage clone, domain 1 multiple mutant N56T, R63G (protein)
# chain: B1 chain with P52L, N56T, R63G
# B5: SC10: phage clone, domain 1 mutant N56D (protein)
# chain: B1 chain with P52L, N56D
# B6: 3G1: phage clone, domain 1 multiple mutant R2W, S38T (protein)
# chain: B1 chain with R2W, S38T, P52L
# B7: 4A6: phage clone, domain 1 mutant D8G (protein)
# chain: B1 chain with D8G, P52L
# B8: 4G8: phage clone, domain 1 mutant P11L (protein)
# chain: GRTCPKPDDLLFSTVVPLKTFYEPGEEITYSCKPGYVSRGGMRKFICPLTGLWPINTLKCTPRVAETVESCLAKLHTENSFTNVWKDDKTLDRYANYEGCLWNATGVVVCTGDETQCYGTWVPIGLAIPENEGGGSEGGGSEGGGSEGGGTKPPEYGDTPIPGYTYINPLDGTYPPGTEQNPANPNPSLEESQPLNTFMFQNNRFRNRQGALTVYTGTVTQGTDPVKTYYQYTPVSSKAMYDAYWNGKFRDCAFHSGFNEDPFVCEYQGQSSDLPQPPVNAGGGSGGGSGGGSEGGGSEGGGSEGGGSEGGGSGGGSGSGDFDYEKMANANKGAMTENADENALQSDAKGKLDSVATDYGAAIDGFIGDVSGLANGNGATGDFAGSNSQMAQVGDGDNSPLMNNFRQYLPSLPQSVECRPYVFGAGKPYEFSIDCDKINLFRGVFAFLLYVATFMYVFSTFANILRNKES
# B9: Dom5: phage displaying wild type (WT) domain 5 (protein)
# chain: CKLPVKKATVVYQGERVKIQEKFKNGMLHGDKVSFFCKNKEKKCSYTEDAQCIDGTIEVPKCFKEHSSLAFWKTDASDVKPC
# modifications: left off: large carriers
# Test system: human β2GPI-dependent antiphospholipid antibody
# Assay: Micropanning of mutant domain 1 phage, patient antibodies
# Format: binding
# Conditions: Table 7B, antibody 6226
row,Molecule,Micropan score
1,B1,1
2,B2,1
3,B3,3
4,B4,4
5,B5,3
6,B6,1
7,B7,2
8,B8,2
9,B9,0 (0 symbolizing <10 colonies)

# Same assay, conditions: Table 7B, antibody 6501
row,Molecule,Micropan score
1,B1,1
2,B2,1
3,B3,3
4,B4,2
5,B5,3
6,B6,1
7,B7,2
8,B8,2
9,B9,0 (0 symbolizing <10 colonies)

# Same assay, conditions: Table 7B, antibody 6632
row,Molecule,Micropan score
1,B1,0 (0 symbolizing <10 colonies)
2,B2,1
3,B3,3
4,B4,3
5,B5,3
6,B6,1
7,B7,2
8,B8,2
9,B9,0 (0 symbolizing <10 colonies)

# Same assay, conditions: Table 7B, antibody 6644
row,Molecule,Micropan score
1,B1,1
2,B2,1
3,B3,4
4,B4,4
5,B5,3
6,B6,1
7,B7,3
8,B8,3
9,B9,0 (0 symbolizing <10 colonies)

# Same assay, conditions: Table 7B, antibody 6701
row,Molecule,Micropan score
1,B1,1
2,B2,1
3,B3,3
4,B4,4
5,B5,3
6,B6,1
7,B7,2
8,B8,2
9,B9,0 (0 symbolizing <10 colonies)

# Same assay, conditions: Table 7B, antibody 7008
row,Molecule,Micropan score
1,B1,1
2,B2,1
3,B3,3
4,B4,2
5,B5,4
6,B6,1
7,B7,2
8,B8,3
9,B9,0 (0 symbolizing <10 colonies)

# Test system: rabbit anti-human β2GPI
# Assay: Micropanning of mutant domain 1 phage, rabbit antibody
# Format: binding
# Set-up: key: 0 (<10 colonies) to 4+ (confluent) semiquantitative colony score
# Conditions: Table 7B, 1st column
# Protocol: Error prone PCR was carried out as follows. Domain 1 of human β2GPI was amplified by PCR under conditions that enhance the error rate of Taq polymerase. The primers were such that amino acids 1-64 were amplified. A Sfc 1 restriction site was incorporated as part of amino acid 1. At the 3′ end a Sal 1 restriction site was incorporated after amino acid 64. The PCR reaction was done as described by Leung et al. (1989) Technique 1:11, using 0.25 mM MnCl2. The PCR product was digested with Sfc 1 and Sal 1 and cloned into fd-tet-DOG2 that had been digested with Apal 1 and Sal 1. This positions domain 1 at the N-terminus of pill immediately after the pill signal sequence. The ligation reaction was electroporated in E. coli K91. Phage were harvested and titered by standard methods. Resulting phage clones were assayed using a micropanning technique.
# Immulon type 2 plates were coated with protein G. Protein G was prepared at 5 μg/mL in 0.1 M NaHCO3 and 100 μL per well was added to the wells of microtitration plates and incubated overnight at 4° C. After discarding excess protein G solution from plates, each well was blocked with 200 μL 2YT for 1 hour at RT with agitation on an oscillating platform. Tris-buffered saline, pH 7.4/0.5% Tween 20 (TBS/Tween), was used with an automatic plate washer to wash the wells 4 times with 200 μL. One hundred μL human β2GPI-dependent antiphospholipid 6626, 6501, 6701, rabbit β2GPI-dependent antiphospholipid, or control normal IgG, diluted to 2.5 μg/mL with 2YT, was added to washed wells. The plate was incubated for 1 hour at room temperature on a rotating platform.
# Phage to be tested by micropanning were obtained from the agar plates generated by biopanning. Each clone to be tested was transferred using sterile toothpicks to a separate well of a round-bottom 96-well microtitration plate (Corning, Corning, N.Y.) containing 200 μL 2YT/Tet per well and cultured overnight at 30° C. Following overnight incubation, phage cultures were centrifuged using a microtitration plate holder at 1300×g for 10 minutes at room temperature. Supernatants constituted the source of “neat” phage. The neat phage were diluted 1: 100-1:1000 and 100 μL was added to the plate containing protein G-bound β2GPI-dependent antiphospholipid antibody-6501 and normal IgG prepared as described above. The incubation of dilute phage with aPL antibody or control IgG was carried out for 2 hours at room temperature on a flat rotator. After 9 washes with TBS/Tween in an automated plate washer, the IgG-bound phage was eluted with 20 μL of 0.2 N HCl-glycine/0.1% BSA, pH 2.2. The elution incubation continued for 10 minutes at RT, during which time a new Corning microtitration plate was prepared containing 20 μL of freshly starved E. coli per well and kept chilled. One hundred forty μL of 29 mM Tris was added to the plate containing the phage eluates in order to neutralize the pH, following which 20 μL of phage suspension was transferred from each well to the corresponding well in the plate containing starved E. coli. After a 10 minute incubation at 37° C., 200 μL 2YT was added and incubation carried out an additional 30 minutes at 37° C. Using multichannel pipettors, 8 μL from each well was spotted on a large 2YT/Tet agar plate while retaining the original 8×12 well pattern and orientation from the last microtitration plate. After allowing the spots to dry for 30 minutes, the plate was incubated overnight at 30° C. The following day, colonies were semiquantitatively scored from 0 to 4+, with 0 symbolizing <10 colonies; 1+=10-30; 2+=30 colonies to 70% confluent; 3+=70%-90% confluent; 4+=confluent.
# For Table 7A, the rabbit anti-human β2GPI was performed on two separate occasions. Mutations are listed with the original amino acid, the position number, and the identity of the amino acid at that position in the mutant. […] Non-mutated domain 1 have a score of 3+, while domain 5 phage gave a score of −. Silent mutations are not shown. […]
row,Molecule,Micropan score
1,B5,4
2,B9,4

# Same assay, conditions: Table 7B, 2nd column
row,Molecule,Micropan score
1,B5,4
2,B9,4

# Same assay, conditions: Table 7B, 3rd column
row,Molecule,Micropan score
1,B5,4
2,B9,4

# Same assay, conditions: Table 7B, 4th column
row,Molecule,Micropan score
1,B5,4
2,B9,4

# Same assay, conditions: Table 7B, 5th column
row,Molecule,Micropan score
1,B1,4
2,B2,4
3,B3,4
4,B4,4
5,B6,4
6,B7,4
7,B8,4
8,B9,0 (0 symbolizing <10 colonies)

# Source: patent US6858210B1, “Therapeutic and diagnostic domain 1 β2GPI polypeptides and methods of using same” (La Jolla Pharmaceutical Co., priority 1998, dated 2005)
